Results reported in the DeepSol protein solubility set.

Test: soluble on expression in E. coli; label from the status in PepcDB or PDB records

Sequence | soluble on expression in E. coli
ADCSSDLTSGISTKRIYYVAPNGNSSNNGSSFNAPMSFSAAMAAVNPGELILLKPGTYTIPYTQGKGNTITFNKSGKDGAPIYVAAANCGRAVFDFSFPDSQWVQASYGFYVTGDYWYFKGVEVTRAGYQGAYVIGSHNTFENTAFHHNRNTGLEINNGGSYNTVINSDAYRNYDPKKNGSMADGFGPKQKQGPGNRFVGCRAWENSDDGFDLFDSPQKVVIENSWAFRNGINYWNDSAFAGNGNGFKLGGNQAVGNHRITRSVAFGNVSKGFDQNNNAGGVTVINNTSYKNGINYGFGSNVQSGQKHYFRNNVSLSASVTVSNADAKSNSWDTGPAASASDFVSLDTSLATVSRDNDGTLPETSLFRLSANSKLINAGTKESNISYSGSAPDLGAFERN | soluble
MAQQTNVAGQKTEKQRKAPFRADHVGSLLRSVPVKEARQKKAAGEMTAEQLRDIENQEITRIVEKQKEIGLDVVTDGEFRRSWWHYDFLEGLDGVEPFIPAEGIQFHNTKTKARSIKVTGKLDFTSHPALGDYQFLHEIAGNATPKLTIPSPNMLFFGEKADKGIYDDQEEYFHDMAQAYKKAIKAFYDAGCRYLQLDDTSWSLFFEDKGREVVRALGGDPETLPAIFAKTINDAVADRPDDLTITMHICRGNFRSTWAASGGYDAVAETILDGLNLDGLFLEYDDDRSGNFDPLRFVKRKDLQIVLGLITSKYGELENPEDVNAVSMKPRVLSAWTSYALEHHHHHH | not soluble
MPILKHLLLKNRKQPMQKKFVATAVGYVPWGDGAAEYFYNLYEYEDGTRECEKFDGGQYYKIPENADFSTKAQVKAWIYGGAVPKSVLSYEALIDEMNENIKQRSQAGGEIDRQLEEALDKQLGRYKNNKKIKNYRKQLNLKHDSSALFLDGEEIYSVTACRINQKI | not soluble
MFSPLECRLAVACKFQDDRYYKLFHQYFDLLAQVHSVVETMDGLWMLRVWRAQKFGPESIKERRERQLFHVTQFSFKRYIVPPNPRIGKAIEEFGKEYLIEINVYDEHRADLVSLNSGNFVAIQNVHAASTPHREIQILHGGGEAYQRGISTVPVDFEVDAFQNFKRKVESVLENVLYDENFIEFQQPEEVTENRVPEEPQLNIHKDPLPSDLPQ | soluble
MSRIEAVFFDCDGTLVDSEVICSRAYVTMFQEFGITLDPEEVFKRFKGVKLYEIIDIVSLEHGVTLAKTEAEHVYRAEVARLFDSAIEGAGALLSAITAPMCVVSNGPNNKMQHSMGKLNMLHYFPDKLFSGYDIQRWKPDPALMFHAAKAMNVNVENCILVDDSVAGAQSGIDAGMEVFYFCADPHNKPIVHPKVTTFTHLSQLPELWKARGWDITA | not soluble
MSLTAAVRHSDVLVVGAGSAGSVVAERLSMDSSCVVTVLEAGPGLADPGLLAQTANGLQLPIGAGSPLVERYRTRLTDRPVRHLPIVRGATVGGSGAINGGYFCRGLPSDFDRASIPGWAWSDVLEHFRAIETDLDFETPVHGRSGPIPVRRTHEMTGITESFMAAAEDAGFAWIADLNDVGPEMPSGVGAVPLNIVNGVRTSSAVGYLMPALGRPNLTLLARTRAVRLRFSATTAVGVDAIGPGGPVSLSADRIVLCAGAIQSAHLLMLSGVGEEEVLRSAGVKVLMALPVGMGCSDHPEWVMPTNWAVAVDRPVLEVLLSTHDGIEIRPYTGGFVAMTGDGTAGHRDWPHIGVALMQPRARGRITLVSSDPQIPVRIEHRYDSEPADVAALRQGSALAHELCGAATRIGPAVWATSQHLCGSAPMGTDDDPRAVVDPRCRVRGIENLWVIDGSVLPSITSRGPHATIVMLGHRAAEFVQEGHHHHHH | soluble
RGVAVYVDHVDGDIHPVTYELIGKARELAAKINHPVYAVFIGQNIKDKAEELLHYGVDEVFVYDDAALKYFRIEPYTKAFEDFINKNKPSTILVGATTVGRSLAPRIAARFRTGLTADCTILDMKENTDLVQIRPAFGGNIMAQIINPNNRPQLATVRYKVMNAPVRSEEKKGKITLCSLKDITSNIEVLKVVKKQVEEN | not soluble
AQGLQARFQLLRVLEVPADDAVAKGLEISFGEPVALIERLGLADEEPISVGSGYFPLKRFPDFLEPENIKILQEQQSISQFLQQVYGCDHIRRSTCVSARLVQPQDAKWLQIPLNQPILLAESVNVDQAGNVIEYGVTRLRGDRME | not soluble
MSLNELPEFEDYVVLTQQQNQNYKIVQQFNNFDKAILLGTSTFFEGFDFQANGIKCVMIAKLPFMNKHNAKYWLMDSEFTSTFKEYVLPDAVTRFRQGLGRLIRNENDRGIIVSFDDRLINSNYKNFFEQTLENYRQKKGDIQQFGKLLRQIQKEGHHHHHH | not soluble
GSTDSLPGKFEDMYKLTSELLGEGAYAKVQGAVSLQNGKEYAVKIIEKQAGHSRSRVFREVETLYQCQGNKNILELIEFFEDDTRFYLVFEKLQGGSILAHIQKQKHFNEREASRVVRDVAAALDFLHTKGIAHRDLKPENILCESPEKVSPVKICDFDLGSGMKLNNSCTPITTPELTTPCGSAEYMAPEVVEVFTDQATFYDKRCDLWSLGVVLYIMLSGYPPFVGHCGADCGWDRGEVCRVCQNKLFESIQEGKYEFPDKDWAHISSEAKDLISKLLVRDAKQRLSAAQVLQHPWVQGQAPEKG | soluble
VDKIYVIEENDPFIEEQIKAYGIDCIGKDVIPPYGEMTPDVLRKAIFGKTNDTIEYKSELVTPRPPSFCAGCPHRGFFYELGKRKNLIVGGDIGCYTLGFAPPYNGIDYVVCMGSAFGTAHGAQKVLNMKDDNEKRLVGVLGDSTFFHTGINGLLDVVYNRGNSISVILDNRITGMTGHQENPGSGYTLQGAKTKEVDIEGLVKACGIEHVRVINPNNLKEVNEALDWALAIEDEPSVIIT | not soluble
QVQLQQSGPEDVKPGASVKISCKASGYTFTDYYMNWVKQSPGKGLEWIGDINPNNGGTSYNQKFKGRATLTVDKSSSTAYMELRSLTSEDSSVYYCESQSGAYWGQGTTVTVSA | soluble
TGAGTPSQGKKNTTTHTKCRRCGEKSYHTKKKVCSSCGFGKSAKRRDYEWQSKAGE | soluble
MSLTKVSAFFSTCKAGVFLGWDRNIDTSIAYTDGYSNRLDIISYDLCNWNGNNDSSSISWDSASTIRDLQKPNIPLIKQYKGPYAHLIKNVIISAHMPCPTGGTSNGSISPQDFATLANTKIQDINSSSPWFLQNYKAIVSKVGDGLEYYGHVGTVYFRPFHEVNGNWFWWGDKDVSQYKQLWINLHDYLVSKNSGCRGLTWLKFCYAPNSGKNAALYYPGDDYVDMVGMDAYSDNPSTDTYVKRAYAELTGGTYNGVTYPGIDKPFGFPELGPNVGGDYVDNKNRLIKKFDYKRWSDAIKLNYPKASYFIIWNGGYEPRNNDNGTSLFNMSYEGHHHHHH | soluble
MAHHHHHHMHIGLAAAVPSPTTAPQWLQDIENQLLIRNAIELKPSQSIFDSYTTLHVSVLHLQTVEDERQRLRMERSRLTERVRELEQAAANSSLQTSYERELEAKKDALQDQLRVYMQRESDYYKALSEVKAVQEERDMLRLRSNKLDAELEQRTAELQLLHKEYTALRDEYDRVRLTVSEADRYLREVKTAKEKTVQLQHRIVTLEDEVNMLRRQLQEALKGETAAAVDKAKRANPNKDGEDAEVAPSPMHTTHSPHTDPCTTLSPNPLGAEPSHASMVISEAHTSSTLHGLCVLDDGKRFLTSGADKHIRLWNRQSPQAEKYFSSSSIALALDTSSHYLLAGCADHVVRFWDVNSLRVLEMTGHTEKVVAACLSSSAQHAFTASSDSTIKLWDVRRRESLRTLLCQSTCNDVTVAGDTVFSAHYNGKITVWDRRTATRSGEVVAHQRVATCVRVSANGQLCVSMGKDNVISVRDARVFTKTLFSVAPVQLVVMMNWARLSIAPSGQLCAVGSGRTSDLLLIRLHGGGQGDAEATDSASSPALVKVLKACVSNATSYGDQGSGSSKGPIFSTAWGASEGGPLVSISNDRCVQVWE | not soluble
MGSDKIHHHHHHMSFSLRNYQVELILDIKKSMLAGHRKIMVQSPPRSGKTVCMAHIAKNATNKQKTVLFFSHRKEINEQVFETFSRAGVDMGLVYIGTVGSIVRKLGKLPVPTLVLVDEAHHIKASQYQQILKYYHQAVQLFFTGTPIRLDGSGFDDMADDLVVGKSILWLQEHGNISEFDYYSINLLDQAKLRKRQGEYTNQSIDDSFDFSNSTAIT | not soluble
MGEAAKDQTEEVIQAWYLDNKEEDQKLPHHKDPKEFVSLDKLAELGVLCWRLDADNYETDEELKRIRESRGYSYMDLCEVCPEKLPNYEEKVKMFFEEHLHIDEEIRYCLAGSGYFDVRDLNDIWIRVWVKKGGLIVFPAGIYHRFTVDSDNYMKAMRLFVGGPVWTAYNRPHDHLPARKAYMKKFLKVIGDRNIDASA | soluble
MSQQKICFIGAGNMTRSIISGLIRSGYPASQVQATNPSQGKLDALATDFGVRVSQDNVSAAQDADVIILSVKPQLMEQVCQALQGIDMSNKLLITIAAGIKASRYSEYLAQPITLIRTMPNTPMQIGVGMTGLYAPQSLSDAQKAIAERLMSSGGEIVWVNEESDINQVIALAGSSPAYFFLLMESMIDAGKQMGMDEAKARSLVQQAALGAAMMAKQNPELTLGNLRENVTSKGGTTAQAIATFEAADLRGVVKKAMENCINRAEEMAKTF | soluble
MGSDKIHHHHHHSQERTLFPTEKTDRVPLSVFTSFKADVTTRATAQPLPEGSSIGVFLIADANYTPQSNVKYTCQPDDEWTSETSVWVGGARAGLCAYYPFGKVTFSADIQTQTTLKNQAYTEDADWWYAKDNAAVTVTNLSPEIEFLLEKPYSQLSLEMIRNGRYPLQCKITNVRIELENGESMVDTGTFDIKDGSLQNTTDVTSYSYPTSGPMHDTGLGVGEAARDTTCNYLFVPQILASGLKLTLTIDEREFSVIVPQADLGELIAGKRHVVRLDIRGGIPINIVEVTTKEWQSTSLDGGDATTIKDTTEIIIDGGKVGTEDWASDPTENGSGAL | not soluble
MEINVDQINLMTKKGLRGDLKNFESVLDFLEKYGNATIVKYGMYSLVFQIAMNKFIDISKECEECGGKCCQIGYPVPVYGFDYEELRNKLSMEDLKKLEKVDSNLFLLRRPCKFQKGWYCSIHKFKPYACLSYPFATEDEQRDAINSYDGKGIPDLEHHHHHH | not soluble
MGSDKIHHHHHHMNRESMRPQFAPARSPSDVAMISRHIEAGVHRLPRAPHHRVMVHASAATRSYCNQVGRYFVRRAGDIDLVPAGEEGGFEAETAFDTVEIVLPPALMERVAAELGGRALVSRLDTRHLLRDQRIEHLARALQNDLDAGAPSGSLFADSIGAALAVRLLGVDDDIDIERTNRLSDTQLKRVLEHIEAALHEPLSIDRLARVAGASSSHLRTWFKVATGVTLHRYVLRRRVERARLLLERGDLSTSEVAELTGFAHQSHLAHWMRREIGQTPRDVRRARPPK | not soluble
EKVKNSDYTFEVDFEGPFFPIVEGVNSFGKRMYRVAPQVLRVPLEKPETRVISDIKNGEVLVYVFIQSPEGVVPVSLNLEGKRFRFFNLEGKWICVFKSFLEDGAHELEITFNGPYGYTFSLKKEIYVIKRVAVPMRGEDGAFDYTVFAEHVVKRGETLWSIANQYGVRVGDIVLINRLEDPDRIVAGQVLKIGRVYFRENPVTIVVNLFSSKLALYYDGVLLKVYPVALGRSDATPPGRYWVLRKEIDPALYWFGEYISPRTPLNGLGTRYLQLSDPTYAIHGTSKPWEIGKRISHGCIRMFNRDVEEIDAFAGVGTEVVVVKEDKEFPERIY | not soluble
PQTLYQKLVETHTVARLDSQNVLLYADLHIMNEYTSPQAFAGLAEAGRTVLQPGQNVSVVDHIIPTHPVAIRIIEEPNSALQASNLKKNCERHGIPLFDANNRFQGIEHVIAPELGMIRPGMVVLCGDSHTTTYGALGALGFGIGTSEVEHVLATQTLVYRLAPT | not soluble
